Molecular target: Tat-PYC-Smad7 (recombinant Tat-tagged protein containing amino acids 203-426 of human Smad7) (human) (UniProt O15105)
Experiment: sandwich ELISA: rabbit anti-Smad7 (Novus NBP1-87728) as capture, MAB2029 as detection, Tat-PYC-Smad7 spiked into dog serum, OD 450

Sequence of UniProt O15105 (O15105 other isoform, or with tags, fused parts or gaps limits assumed): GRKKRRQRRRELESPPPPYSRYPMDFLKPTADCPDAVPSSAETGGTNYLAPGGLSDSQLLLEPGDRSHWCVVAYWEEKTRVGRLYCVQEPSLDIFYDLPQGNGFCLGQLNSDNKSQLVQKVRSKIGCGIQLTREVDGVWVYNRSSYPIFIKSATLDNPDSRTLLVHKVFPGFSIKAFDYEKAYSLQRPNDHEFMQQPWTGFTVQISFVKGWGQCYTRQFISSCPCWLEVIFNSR

Q: With “Mouse monoclonal antibody (R&D #MAB2029) that recognized the c-terminus of human SMAD7” as the substance, how does the lowest concentration detected read?
A: 0.16 ng/mL
